Data on two molecules can be found in US20190367613A1 (JOUNCE THERAPEUTICS, published 2019).

Experiment [1] has as its target T1, Human ICOS (human, UniProt Q9Y6W8 21-199).
T1 construct: Native ICOS in or on CD4+ T cells of human PBMCs; M13 stains it in fixed and permeabilized cells; also called Inducible T-cell COStimulator; CD278
T1 sequence: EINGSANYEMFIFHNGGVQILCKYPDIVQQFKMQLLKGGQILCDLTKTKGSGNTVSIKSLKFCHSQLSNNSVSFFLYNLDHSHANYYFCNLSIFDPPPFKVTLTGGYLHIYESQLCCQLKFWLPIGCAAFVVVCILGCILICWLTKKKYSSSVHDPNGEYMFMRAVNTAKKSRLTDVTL
The experiment is described as follows: intracellular flow cytometry on permeabilized human PBMCs, streptavidin PE detection.

For experiment [2], the target named is T1, Human ICOS. The experiment is described as follows: cell-based or functional assay.

B1: M13 anti-ICOS detection antibody (antibody, V domains shown)
VH: EVQLQQSGAELVRPGAVVKLSCKASGFDIKDYYMHWVQQRPEQGLEWIGWIDPENGNAVYDPQFQGKASITADTSSNTAYLQLSSLTSEDTAVYYCASDYYGSKGYLDVWGAGTTVTVSS
VL: QIVLTQSPTIMSASPGEKVTITCSASSSVSYMHWFQQKPGTSPKLWIYSTSNLASGVPARFGGSRSGTSYSLTISRMEAEDAATYYCQQRSSYPFTFGSGTKLEIK
notes: also called 2M13; biotinylated M13 anti-ICOS detection antibody
Consider B1, for which, in experiment [1], the binding result is on record as “binds”.

B2: JTX-2011 (antibody, V domains shown)
VH: EVQLVESGGGLVQPGGSLRLSCAASGFTFSDYWMDWVRQAPGKGLVWVSNIDEDGSITEYSPFVKGRFTISRDNAKNTLYLQMNSLRAEDTAVYYCTRWGRFGFDSWGQGTLVTVSS
VL: DIVMTQSPDSLAVSLGERATINCKSSQSLLSGSFNYLTWYQQKPGQPPKLLIFYASTRHTGVPDRFSGSGSGTDFTLTISSLQAEDVAVYYCHHHYNAPPTFGPGTKVDIKR
On to B2, for which, in experiment [2], the “intracellular IFNγ production in CD4+ T cells (flow cytometry, after tetanus toxoid stimulation)” value was determined as 4 fold and the “intracellular TNFα production in CD4+ T cells (flow cytometry, after tetanus toxoid stimulation)” value was 4 fold.
